Test results published in article PMC2654154, “Molecular Basis of Filamin A-FilGAP Interaction and Its Impairment in Congenital Disorders Associated with Filamin A Mutations” (PLoS ONE, 2009).

Tests used:
FilGAP (Homo sapiens) = FilGAP (Homo sapiens) (UniProt Q8N264); conditions: cited from earlier work
[1] = molecular target: T1, FLAG-tagged full-length FLNa (filamin A), wild type (human, UniProt P21333 1-2647); assay: pull-down; GST-His- or MBP-His-FilGAP constructs (various concentrations) with 25 nM FLAG-FLNa on FLAG-specific mAb M2 agarose; 50 mM Tris-HCl, 150 mM NaCl, 0.1% Triton X-100, 0.1 mM EGTA, pH 7.4, 1 h, 25°C; immunoblot for GST or MBP; conditions: both partners purified
T1 construct: filamin A (FLNa), human, full length; also called FLAG-FLNa; WT FLAG-FLNa; source: Sf9 insect cells (baculovirus), purified

[2] = molecular target: T2, FLAG-FLNa L2439M (disease-related) (human, UniProt P21333 1-2647, L2439M); assay: pull-down; full-length FilGAP or His-FilGAP lacking 649–725 (50 nM in Figure 1C) mixed with increasing amounts of wild-type or mutant FLAG-FLNa, precipitated with FLAG-specific mAb on agarose; immunoblot for FilGAP or the His tag; conditions: both partners purified
T2 construct: filamin A (FLNa), human, full length, transcript of the patient mutation 7315C>A; source: Sf9 cells, purified

[3] = molecular target: the molecule itself; assay: SEC; Superose 6 10/300 GL, 20 mM Tris-HCl pH 7.4, 150 mM NaCl, 0.5 mM EGTA, 4°C; size from calibration with standards

T1 sequence (P21333 whole entry): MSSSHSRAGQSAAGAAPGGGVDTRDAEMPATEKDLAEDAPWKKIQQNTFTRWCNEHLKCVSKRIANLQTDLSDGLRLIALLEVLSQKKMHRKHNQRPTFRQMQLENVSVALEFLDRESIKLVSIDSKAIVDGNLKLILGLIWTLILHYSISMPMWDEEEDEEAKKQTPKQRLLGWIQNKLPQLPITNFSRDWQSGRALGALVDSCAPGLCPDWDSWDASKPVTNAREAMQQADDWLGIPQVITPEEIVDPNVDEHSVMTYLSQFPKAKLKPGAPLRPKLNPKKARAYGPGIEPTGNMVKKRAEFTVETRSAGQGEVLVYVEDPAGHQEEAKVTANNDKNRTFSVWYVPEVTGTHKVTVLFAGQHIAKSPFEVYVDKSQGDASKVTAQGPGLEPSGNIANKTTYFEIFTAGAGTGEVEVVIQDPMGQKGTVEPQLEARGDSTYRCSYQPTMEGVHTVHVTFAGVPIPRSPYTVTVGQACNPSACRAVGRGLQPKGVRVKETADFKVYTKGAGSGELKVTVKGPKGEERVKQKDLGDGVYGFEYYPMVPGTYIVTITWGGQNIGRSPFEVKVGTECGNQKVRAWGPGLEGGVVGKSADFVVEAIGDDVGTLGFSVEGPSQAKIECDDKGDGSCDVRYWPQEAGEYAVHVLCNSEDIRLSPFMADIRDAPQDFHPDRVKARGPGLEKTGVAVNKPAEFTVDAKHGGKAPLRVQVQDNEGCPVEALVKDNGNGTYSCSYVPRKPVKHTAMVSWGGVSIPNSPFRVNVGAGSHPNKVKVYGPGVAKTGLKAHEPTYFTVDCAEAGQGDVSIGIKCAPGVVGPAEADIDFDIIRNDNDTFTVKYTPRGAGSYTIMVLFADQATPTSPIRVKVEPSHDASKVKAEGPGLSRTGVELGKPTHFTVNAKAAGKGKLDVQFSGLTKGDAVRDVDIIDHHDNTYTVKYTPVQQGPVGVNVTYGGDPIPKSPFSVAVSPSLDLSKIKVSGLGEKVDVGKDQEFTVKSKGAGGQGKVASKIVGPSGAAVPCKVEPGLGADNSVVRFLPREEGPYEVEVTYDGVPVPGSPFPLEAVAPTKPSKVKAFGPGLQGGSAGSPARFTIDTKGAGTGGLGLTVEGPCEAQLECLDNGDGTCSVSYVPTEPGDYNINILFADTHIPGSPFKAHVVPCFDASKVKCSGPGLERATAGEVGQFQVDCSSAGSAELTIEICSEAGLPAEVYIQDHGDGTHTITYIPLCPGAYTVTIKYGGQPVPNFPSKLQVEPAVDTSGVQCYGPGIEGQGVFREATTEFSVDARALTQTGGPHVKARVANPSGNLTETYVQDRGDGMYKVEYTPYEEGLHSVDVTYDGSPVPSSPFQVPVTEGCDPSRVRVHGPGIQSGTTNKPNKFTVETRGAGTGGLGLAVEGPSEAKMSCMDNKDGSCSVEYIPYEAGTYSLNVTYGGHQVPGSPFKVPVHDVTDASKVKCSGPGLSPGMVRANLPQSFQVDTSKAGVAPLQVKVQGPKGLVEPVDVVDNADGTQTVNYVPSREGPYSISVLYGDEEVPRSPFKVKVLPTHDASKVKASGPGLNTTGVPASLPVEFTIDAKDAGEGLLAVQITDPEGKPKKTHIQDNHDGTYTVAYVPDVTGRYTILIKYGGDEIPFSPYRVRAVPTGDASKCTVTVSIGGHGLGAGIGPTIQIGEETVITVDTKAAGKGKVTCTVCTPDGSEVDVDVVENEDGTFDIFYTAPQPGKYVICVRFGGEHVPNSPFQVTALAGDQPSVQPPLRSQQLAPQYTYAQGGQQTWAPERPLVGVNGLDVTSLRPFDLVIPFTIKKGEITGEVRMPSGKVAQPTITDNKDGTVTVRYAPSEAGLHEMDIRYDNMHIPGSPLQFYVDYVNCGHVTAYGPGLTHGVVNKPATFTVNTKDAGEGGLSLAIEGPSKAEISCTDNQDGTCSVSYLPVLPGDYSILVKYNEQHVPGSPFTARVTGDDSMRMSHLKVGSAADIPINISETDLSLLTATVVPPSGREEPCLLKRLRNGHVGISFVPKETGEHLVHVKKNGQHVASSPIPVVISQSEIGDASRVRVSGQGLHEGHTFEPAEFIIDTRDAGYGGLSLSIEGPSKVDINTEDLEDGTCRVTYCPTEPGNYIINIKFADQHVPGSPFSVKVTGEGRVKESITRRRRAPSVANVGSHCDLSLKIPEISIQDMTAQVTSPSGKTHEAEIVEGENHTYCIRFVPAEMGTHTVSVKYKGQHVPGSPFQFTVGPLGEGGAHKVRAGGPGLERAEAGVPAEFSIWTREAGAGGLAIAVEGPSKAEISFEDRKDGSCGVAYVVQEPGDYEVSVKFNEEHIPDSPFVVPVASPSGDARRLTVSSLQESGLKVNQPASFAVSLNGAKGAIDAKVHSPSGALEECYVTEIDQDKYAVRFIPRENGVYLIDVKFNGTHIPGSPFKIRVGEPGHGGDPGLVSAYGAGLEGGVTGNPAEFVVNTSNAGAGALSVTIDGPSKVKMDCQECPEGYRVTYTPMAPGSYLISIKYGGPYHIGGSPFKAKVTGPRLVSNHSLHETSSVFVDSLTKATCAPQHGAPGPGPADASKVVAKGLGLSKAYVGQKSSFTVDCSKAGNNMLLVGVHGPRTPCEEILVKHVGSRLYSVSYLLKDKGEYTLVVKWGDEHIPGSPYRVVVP
T2 sequence (P21333 whole entry L2439M): as the sequence (P21333 whole entry) above, with L2439M counted along it

filamin A (from UniProt P21333)
Kd (FilGAP (Homo sapiens)): 200 nM

B1: GST-His-FilGAP 649–748 (C-terminal 100 residues) (domain or fragment, human, UniProt Q8N264 649-748, looked up)
chain: SSLKQEMTKQKIEYESRIKSLEQRNLTLETEMMSLHDELDQERKKFTMIEIKMRNAERAKEDAEKRNDMLQKEMEQFFSTFGELTVEPRRTERGNTIWIQ
notes: FilGAP, human, C-terminal 100 residues; also called GST-FilGAP fragment; source: E. coli (pGEX-4T-3-HT), purified
binding result [1]: binds

B2: full-length FilGAP, purified from Sf9 insect cells (natural protein, human, UniProt Q8N264 1-748, looked up)
chain: MEENNDSTENPQQGQGRQNAIKCGWLRKQGGFVKTWHTRWFVLKGDQLYYFKDEDETKPLGTIFLPGNKVSEHPCNEENPGKFLFEVVPGGDRDRMTANHESYLLMASTQNDMEDWVKSIRRVIWGPFGGGIFGQKLEDTVRYEKRYGNRLAPMLVEQCVDFIRQRGLKEEGLFRLPGQANLVKELQDAFDCGEKPSFDSNTDVHTVASLLKLYLRELPEPVIPYAKYEDFLSCAKLLSKEEEAGVKELAKQVKSLPVVNYNLLKYICRFLDEVQSYSGVNKMSVQNLATVFGPNILRPKVEDPLTIMEGTVVVQQLMSVMISKHDCLFPKDAELQSKPQDGVSNNNEIQKKATMGQLQNKENNNTKDSPSRQCSWDKSESPQRSSMNNGSPTALSGSKTNSPKNSVHKLDVSRSPPLMVKKNPAFNKGSGIVTNGSFSSSNAEGLEKTQTTPNGSLQARRSSSLKVSGTKMGTHSVQNGTVRMGILNSDTLGNPTNVRNMSWLPNGYVTLRDNKQKEQAGELGQHNRLSTYDNVHQQFSMMNLDDKQSIDSATWSTSSCEISLPENSNSCRSSTTTCPEQDFFGGNFEDPVLDGPPQDDLSHPRDYESKSDHRSVGGRSSRATSSSDNSETFVGNSSSNHSALHSLVSSLKQEMTKQKIEYESRIKSLEQRNLTLETEMMSLHDELDQERKKFTMIEIKMRNAERAKEDAEKRNDMLQKEMEQFFSTFGELTVEPRRTERGNTIWIQ
notes: FilGAP, human, full length; Tag-free FilGAP was prepared from His-FilGAP with TEV protease; also called Purified FilGAP; source: Sf9 cells, purified (Ni-NTA)
binding result [2]: binds

B3: His-tag full-length FilGAP (natural protein, human, UniProt Q8N264 1-748, looked up)
chain: B2 chain
notes: FilGAP, human, full length; also called His-FilGAP; His-tag FilGAP; source: Sf9 cells, purified (Ni-NTA)
stoichiometry N [3]: 2
